# Results from paper PMC4357707 (Nucleic Acids Research, 2015).
# Positions count from the first letter of the chain named.
# T1: HEN1-K22A (Arabidopsis thaliana, UniProt Q9C5Q8 1-942, K22A)
# T1 sequence: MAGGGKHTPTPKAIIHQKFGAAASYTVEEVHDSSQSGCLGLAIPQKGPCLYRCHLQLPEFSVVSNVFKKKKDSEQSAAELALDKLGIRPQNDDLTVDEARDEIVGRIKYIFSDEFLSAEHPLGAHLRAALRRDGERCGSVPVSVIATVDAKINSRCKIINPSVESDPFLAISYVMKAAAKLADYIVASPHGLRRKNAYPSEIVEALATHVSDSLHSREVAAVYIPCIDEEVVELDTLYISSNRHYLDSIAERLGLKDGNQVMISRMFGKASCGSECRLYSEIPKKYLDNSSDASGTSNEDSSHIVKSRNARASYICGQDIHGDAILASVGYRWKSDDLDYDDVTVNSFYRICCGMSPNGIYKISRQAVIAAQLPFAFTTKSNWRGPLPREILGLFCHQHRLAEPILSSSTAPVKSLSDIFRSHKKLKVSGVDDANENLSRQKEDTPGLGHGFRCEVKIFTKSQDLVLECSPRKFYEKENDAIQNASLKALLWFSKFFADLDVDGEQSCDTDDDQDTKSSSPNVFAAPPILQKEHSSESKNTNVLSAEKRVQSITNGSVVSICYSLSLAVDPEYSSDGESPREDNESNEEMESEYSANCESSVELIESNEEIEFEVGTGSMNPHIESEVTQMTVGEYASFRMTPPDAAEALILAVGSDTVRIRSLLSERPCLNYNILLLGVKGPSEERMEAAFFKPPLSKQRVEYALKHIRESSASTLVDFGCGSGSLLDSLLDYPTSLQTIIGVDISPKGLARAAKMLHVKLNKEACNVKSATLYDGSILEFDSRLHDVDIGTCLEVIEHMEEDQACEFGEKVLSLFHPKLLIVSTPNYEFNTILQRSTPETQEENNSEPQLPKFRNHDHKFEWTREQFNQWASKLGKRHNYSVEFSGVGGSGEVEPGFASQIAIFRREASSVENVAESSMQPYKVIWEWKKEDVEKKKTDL
# T2: HEN1-KKKK68-71SAAS (Arabidopsis thaliana, UniProt Q9C5Q8 1-942, K68S;K69A;K70A;K71S)
# T2 sequence: T1 sequence with A22K, K68S, K69A, K70A, K71S
# B1: miR173/miR173* (dsRNA)
# RNA 1: UUCGCUUGCAGAGAGAAAUCAC
# RNA 2: GAUUCUCUGUGUAAGCGAAAG
# Experiments:
# HEN1-K22A = target: T1, HEN1-K22A; assay: EMSA
# HEN1-KKKK68-71SAAS = target: T2, HEN1-KKKK68-71SAAS; assay: EMSA
binder,measurement,setting,value
B1,binding result,HEN1-K22A,binds
same,binding result,HEN1-KKKK68-71SAAS,no binding
